Reference: patent publication US9127040B2, “Regulation of sodium channels by PLUNC proteins” (The University of North Carolina at Chapel Hill, priority 2011, dated 2015)
Positions count from the first letter of the chain named. Names and notes keep the numbering of the source.

Key:
ENaC = molecular target: T1, ENaC (Homo sapiens, UniProt P37088+P51168+P51170); experiment: Transepithelial voltage (PD), thin film conditions, human bronchial epithelial cultures; type: cell-based; settings: 50 ng/ml, PD remeasured 45 min later, prewashed cultures
T1 construct: measured the transepithelial voltage under thin film conditions in human bronchial epithelial cultures; endogenous in cells; host or cells: primary human bronchial epithelial cultures (normal or CF donors)
T1 sequence (P37088 1-669): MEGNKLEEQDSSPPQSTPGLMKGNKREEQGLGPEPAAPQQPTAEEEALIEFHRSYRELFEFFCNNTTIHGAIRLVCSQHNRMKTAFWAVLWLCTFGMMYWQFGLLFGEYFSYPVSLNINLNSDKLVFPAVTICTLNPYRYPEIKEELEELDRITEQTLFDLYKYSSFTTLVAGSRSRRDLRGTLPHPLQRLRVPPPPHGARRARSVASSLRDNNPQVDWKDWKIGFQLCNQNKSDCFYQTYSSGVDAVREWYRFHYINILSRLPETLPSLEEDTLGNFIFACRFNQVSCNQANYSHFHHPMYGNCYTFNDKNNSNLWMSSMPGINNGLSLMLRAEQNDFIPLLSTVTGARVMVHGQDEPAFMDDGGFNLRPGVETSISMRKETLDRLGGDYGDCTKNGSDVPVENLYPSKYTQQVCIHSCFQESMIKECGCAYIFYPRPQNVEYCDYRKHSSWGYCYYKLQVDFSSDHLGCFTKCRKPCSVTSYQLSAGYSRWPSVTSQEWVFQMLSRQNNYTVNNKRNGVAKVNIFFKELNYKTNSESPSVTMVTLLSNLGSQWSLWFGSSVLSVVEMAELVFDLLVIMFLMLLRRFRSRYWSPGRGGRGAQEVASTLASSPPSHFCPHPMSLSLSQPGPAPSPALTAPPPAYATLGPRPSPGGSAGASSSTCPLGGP
T1 sequence (P51168 1-640): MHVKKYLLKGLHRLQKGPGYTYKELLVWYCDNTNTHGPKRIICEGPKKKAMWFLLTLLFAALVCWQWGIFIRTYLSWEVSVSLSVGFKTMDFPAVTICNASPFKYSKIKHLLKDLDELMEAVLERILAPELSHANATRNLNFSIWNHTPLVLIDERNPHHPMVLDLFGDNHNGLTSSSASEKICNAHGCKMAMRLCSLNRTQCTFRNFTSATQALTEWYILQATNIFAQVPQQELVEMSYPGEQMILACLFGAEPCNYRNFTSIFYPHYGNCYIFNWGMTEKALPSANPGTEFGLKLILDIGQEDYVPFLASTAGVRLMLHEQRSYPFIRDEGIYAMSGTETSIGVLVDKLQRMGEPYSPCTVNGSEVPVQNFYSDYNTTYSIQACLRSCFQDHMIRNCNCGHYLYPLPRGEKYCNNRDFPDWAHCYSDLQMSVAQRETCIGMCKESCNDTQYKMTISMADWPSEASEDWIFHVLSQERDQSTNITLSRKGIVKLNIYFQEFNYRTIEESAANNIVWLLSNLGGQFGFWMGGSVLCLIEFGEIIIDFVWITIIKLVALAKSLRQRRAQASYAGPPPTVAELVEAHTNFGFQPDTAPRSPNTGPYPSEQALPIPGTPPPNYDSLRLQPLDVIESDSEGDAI
T1 sequence (P51170 1-649): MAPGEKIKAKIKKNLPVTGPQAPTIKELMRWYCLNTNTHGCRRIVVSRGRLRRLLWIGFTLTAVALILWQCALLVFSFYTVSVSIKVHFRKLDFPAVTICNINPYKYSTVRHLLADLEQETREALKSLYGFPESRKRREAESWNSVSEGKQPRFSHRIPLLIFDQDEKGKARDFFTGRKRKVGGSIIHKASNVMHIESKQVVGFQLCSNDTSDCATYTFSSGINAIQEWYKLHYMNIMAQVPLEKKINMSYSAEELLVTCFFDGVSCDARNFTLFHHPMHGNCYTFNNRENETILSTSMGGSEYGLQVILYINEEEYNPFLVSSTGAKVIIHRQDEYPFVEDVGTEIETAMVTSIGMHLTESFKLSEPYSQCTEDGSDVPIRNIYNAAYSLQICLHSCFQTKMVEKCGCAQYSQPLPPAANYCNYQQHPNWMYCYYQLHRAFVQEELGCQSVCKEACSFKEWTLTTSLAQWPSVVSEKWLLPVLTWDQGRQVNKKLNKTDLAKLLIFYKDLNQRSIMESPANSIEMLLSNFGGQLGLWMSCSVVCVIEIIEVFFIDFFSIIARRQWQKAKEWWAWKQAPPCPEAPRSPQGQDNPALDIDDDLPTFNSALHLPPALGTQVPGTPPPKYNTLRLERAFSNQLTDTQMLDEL
Excerpt: Tissue procurement and cell culture: Cells were harvested by enzymatic digestion from human bronchial tissue as previously described under a protocol approved by the UNC School of Medicine IRB (Tarran et al., J. Gen. Physiol. 127:591 (2006)). Human excess donor lungs and excised recipient lungs were obtained at the time of lung transplantation from portions of main stem or […] bronchi and cells were harvested by enzymatic digestion. All preparations were maintained at an air-liquid interface in a modified bronchial epithelial medium and used 2-5 weeks after seeding on 12 mm T-Clear inserts (Corning Costar) coated with human placental type VI collagen (Sigma). Phosphate buffered saline (PBS) was used for washing human bronchial epithelial culture mucosal surfaces. HBECs were maintained at an air-liquid interface in a modified bronchial epithelial growth medium (BEGM) with 5% CO2 at 37° C. and used 2-5 weeks after seeding on 12-mm T-clear inserts (Corning-Costar, Corning, N.Y., USA) (Randell, Methods Mol. Biol. 742:285 (2011)).
A single-barreled potential difference-sensing electrode was placed in the airway surface liquid by micromanipulator and used in conjunction with a macroelectrode in the serosal solution to measure transepithelial voltage using a voltmeter (World Precision Instruments). […] Transepithelial resistance was routinely measured using the EVOM system (WPI) as previously described (Tarran et al., J. Gen. Physiol. 127:591 (2006)).

CF HBECs = settings: 30 μM, ASL height over 24 h
αβγENaC = molecular target: T2, αβγENaC (Rattus norvegicus, UniProt P37089+P37090+P37091); experiment: Amiloride-sensitive whole cell current, two electrode voltage clamp, Xenopus laevis oocytes expressing αβγENaC; type: cell-based; settings: PLUNC family member co-expressed with α,β,γ ENaC
T2 construct: expressed in transfected cells; host or cells: Xenopus laevis oocytes (cRNA injection)
T2 sequence (P37089 1-698): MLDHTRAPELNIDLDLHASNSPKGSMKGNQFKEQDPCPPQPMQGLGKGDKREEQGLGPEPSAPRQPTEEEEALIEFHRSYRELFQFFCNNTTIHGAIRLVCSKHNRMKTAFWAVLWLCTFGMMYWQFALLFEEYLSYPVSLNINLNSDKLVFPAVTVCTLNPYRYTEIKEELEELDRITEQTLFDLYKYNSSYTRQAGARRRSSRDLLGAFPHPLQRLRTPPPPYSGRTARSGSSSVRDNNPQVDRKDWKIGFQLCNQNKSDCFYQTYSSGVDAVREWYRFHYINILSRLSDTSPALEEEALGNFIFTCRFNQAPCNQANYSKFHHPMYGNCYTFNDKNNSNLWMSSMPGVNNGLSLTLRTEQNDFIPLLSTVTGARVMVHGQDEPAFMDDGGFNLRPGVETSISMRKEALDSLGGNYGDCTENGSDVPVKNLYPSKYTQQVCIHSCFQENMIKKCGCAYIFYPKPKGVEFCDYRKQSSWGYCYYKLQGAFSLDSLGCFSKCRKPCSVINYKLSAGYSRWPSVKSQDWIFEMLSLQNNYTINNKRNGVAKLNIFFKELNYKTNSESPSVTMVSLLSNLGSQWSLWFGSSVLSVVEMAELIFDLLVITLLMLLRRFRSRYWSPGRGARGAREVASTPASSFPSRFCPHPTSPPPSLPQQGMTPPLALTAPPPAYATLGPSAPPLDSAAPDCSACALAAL
T2 sequence (P37090 1-638): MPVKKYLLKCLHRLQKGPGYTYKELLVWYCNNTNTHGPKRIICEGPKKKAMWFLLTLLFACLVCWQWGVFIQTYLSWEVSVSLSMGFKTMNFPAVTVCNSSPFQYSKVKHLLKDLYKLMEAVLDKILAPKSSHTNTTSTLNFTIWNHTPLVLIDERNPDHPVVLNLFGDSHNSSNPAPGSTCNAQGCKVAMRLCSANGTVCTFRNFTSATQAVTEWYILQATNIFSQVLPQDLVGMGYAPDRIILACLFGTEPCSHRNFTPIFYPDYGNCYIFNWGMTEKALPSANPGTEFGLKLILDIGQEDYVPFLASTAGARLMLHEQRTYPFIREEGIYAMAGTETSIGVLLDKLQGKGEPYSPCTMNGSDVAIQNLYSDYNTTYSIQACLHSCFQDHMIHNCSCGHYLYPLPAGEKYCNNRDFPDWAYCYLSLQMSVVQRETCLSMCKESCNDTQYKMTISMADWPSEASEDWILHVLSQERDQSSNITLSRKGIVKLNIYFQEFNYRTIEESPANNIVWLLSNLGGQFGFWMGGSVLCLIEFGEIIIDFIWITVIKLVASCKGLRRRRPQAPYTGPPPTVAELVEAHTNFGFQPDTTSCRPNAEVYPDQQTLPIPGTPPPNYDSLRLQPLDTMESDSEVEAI
T2 sequence (P37091 1-650): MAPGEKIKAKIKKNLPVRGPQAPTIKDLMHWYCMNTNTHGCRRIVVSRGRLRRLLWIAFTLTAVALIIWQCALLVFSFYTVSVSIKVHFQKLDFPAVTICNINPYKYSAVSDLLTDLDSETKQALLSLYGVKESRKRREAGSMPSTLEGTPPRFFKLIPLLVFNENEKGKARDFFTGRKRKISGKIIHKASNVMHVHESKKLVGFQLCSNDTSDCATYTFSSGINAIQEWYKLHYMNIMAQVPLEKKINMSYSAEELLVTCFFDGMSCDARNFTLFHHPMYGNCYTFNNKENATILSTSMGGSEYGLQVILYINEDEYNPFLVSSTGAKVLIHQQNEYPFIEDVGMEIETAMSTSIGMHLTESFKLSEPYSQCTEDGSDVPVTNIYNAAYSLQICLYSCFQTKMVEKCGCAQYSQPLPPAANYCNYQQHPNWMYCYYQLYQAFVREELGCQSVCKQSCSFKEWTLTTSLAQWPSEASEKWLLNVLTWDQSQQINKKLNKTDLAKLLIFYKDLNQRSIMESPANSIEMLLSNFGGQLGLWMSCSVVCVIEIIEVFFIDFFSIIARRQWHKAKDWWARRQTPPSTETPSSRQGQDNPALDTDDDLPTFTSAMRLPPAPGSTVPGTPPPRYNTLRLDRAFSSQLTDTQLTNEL
Description: Xenopus laevis oocytes were harvested and injected as described (Donaldson, et al., J. Biol. Chem. 277:8338 (2002)). Defolliculated healthy stage V-VI oocytes were injected with 0.3 ng of CRNA of each ENaC subunit. Injected oocytes were kept in modified Barth's saline (in mM: 88 NaCl, 1 KCl, 2.4 NaHCO3, 0.3 Ca(NO3)2, 0.41 CaCl2, 0.82 MgSO4, and 15 HEPES, adjusted to pH 7.35 with Tris). Oocytes were studied 24 hr after injection using the two electrode voltage clamp technique as previously described (Donaldson, et al., J. Biol. Chem. 277:8338 (2002)). Oocytes were clamped at a holding potential of −60 mV. The change in amiloride-sensitive whole cell current as an indicator of ENaC activity was determined by subtracting the corresponding current value measured in the presence of 10 μM amiloride from that measured before the application of amiloride. Where appropriate, oocytes were incubated with G22-A39 or ABC for 1 h prior to recording. In some experiments β-ENaC^S518C was used which forms ENaCs that are locked into an open probability near 1.0 by exposure to the sulthydral reactive reagent [2-(Trimethyl-ammonium)ethyl]methanethiosulphonate bromide (MTSET). MTSET was added at a concentration of 1 mM to the oocyte bath as previously described (Snyder, J. Clin. Invest. 105: 45 (2000)).

B1: recombinant SPLUNC1 that had been reduced with DTT: recombinant SPLUNC1 pretreated (reduced) with DTT (protein, UniProt Q9NP55 20-256, looked up)
BPI fold-containing family A …: QFGGLPVPLDQTLPLNVNPALPLSPTGLAGSLTNALSNGLLSGGLLGILENLPLLDILKPGGGTSGGLLGGLLGKVTSVIPGLNNIIDIKVTDPQLLELGLVQSPDGHRLYVTIPLGIKLQVNTPLVGASLLRLAVKLDITAEILAVRDKQERIHLVLGDCTHSPGSLQISLLDGLGPLPIQGLLDSLTGILNKVLPELVQGNVCPLVNEVLRGLDITLVHDIVNMLIHGLQFVIKV
modifications: DTT-reduced
- inhibition of transepithelial PD after DTT reduction (ENaC): abolished SPLUNC1 activity

B2: mutant SPLUNC1: SPLUNC1 with hinge domain mutated to alanines: K94A, N103A, N104A, K138A, Q140A, N142A, D193A (protein, UniProt Q9NP55 20-256, looked up, variant K94A N103A N104A K138A Q140A N142A D193A)
BPI fold-containing family A …: B1 BPI fold-containing family A … with K75A, N84A, N85A, K119A, Q121A, N123A, D174A
- ASL absorption in CF cultures (CF HBECs): significantly inhibited ASL absorption

B3: SPLUNC2: human SPLUNC2 (SEQ ID NO:2), short PLUNC family protein co-expressed in oocytes (protein, listed as Homo sapiens)
chain: MLQLWKLVLLCGVLTGTSESLLDNLGNDLSNVVDKLEPVLHEGLETVDNTLKGILEKLKVDLGVLQKSSAWQLAKQKAQEAEKLLNNVISKLLPTNTDIFGLKISNSLILDVKAEPIDDGKGLNLSFPVTANVTVAGPIIGQIINLKASLDLLTAVTIETDPQTHQPVAVLGECASDPTSISLSLLDKHSQIINKFVNSVINTLKSTVSSLLQKEICPLIRIFIHSLDVNVIQQVVDNPQHKTQLQTLI
- amiloride-sensitive ENaC current relative to control, co-expression (αβγENaC): borderline significance
